Reference: the DeepSol protein solubility set

Assay: soluble on expression in E. coli; label from the status in PepcDB or PDB records

Row | Sequence | soluble on expression in E. coli
1 | MRSMTLEQLRTASETGGVSSVTLKGQGGAFLVQINTRSGVAAILTKARNSEPRRFGNPAAALNVLREVGITIGQFDASEWNPDEREPVARSSDNRAKALHKAHEAAAYNEWLAAEIQEAIDDPRPGIPHDEVMARMDARIVRHKAAGAKRA | not soluble
2 | IQTTAPPVKESSFVEKMKKTGRNIIVFYGSQTGTAEEFANRLSKDAHRYGMRGMSADPEEYDLADLSSLPEIDKSLVVFCMATYGEGDPTDNAQDFYDWLQETDVDLTGVKFAVFGLGNKTYEHFNAMGKYVDQRLEQLGAQRIFELGLGDDDGNLEEDFITWREQFWPAVCEFFGVEATGEESSIRQYELVVHEDMDVAKVYTGEMGRLKSYENQKPPFDAKNPFLAAVTANRKLNQGTERHLMHLELDISDSKIRYESGDHVAVYPANDSALVNQIGEILGADLDVIMSLNNLDEESNKKHPFPCPTTYRTALTYYLDITNPPRTNVLYELAQYASEPSEQEHLHKMASSSGEGKELYLSWVVEARRHILAILQDYPSLRPPIDHLCELLPRLQARYYSIASSSKVHPNSVHICAVAVEYEAKSGRVNKGVATSWLRAKEPAGENGGRALVPMFVRKSQFRLPFKSTTPVIMVGPGTGIAPFMGFIQERAWLREQGKEVGETLLYYGCRRSDEDYLYREELARFHKDGALTQLNVAFSREQAHKVYVQHLLKRDREHLWKLIHEGGAHIYVCGDARNMAKDVQNTFYDIVAEFGPMEHTQAVDYVKKLMTKGRYSLDVGS | soluble
3 | MDSKKILYISQEIFPYLPETDISVVSRKLPQTIQERGNEVRIFMPRYGIINERRNQLHEVIRLSGINMIINDNDHPLIIKVASIQSARMQVYFIDNDDFFKRKTMYDIKPKQENDNDERAIFFVRGALEAIKKLRWIPDVIHCHGWFTALAALYLKKMYADDPCLQKAKVVYSVYDDAGQGVIPETLFGKLGFDKITPDDLSVMEQSSDYLALNRLAIRYADGVIQGSETIAPELTDYISSLEGKAFLPYQGKEDYEEAFDNFYSDLLTANLEHHHHHH | not soluble
4 | MLRLEEDEPSPGICDQLHEIVRSIGLLCYVACPPIPSEIIRKLAFHPPDKGATYRIELKSDPEKDLESVRDCHDEPVQLVVRDRVHPEVKVFSVTTSEDSHLVCVKCSPNCYSKNPEVANQVVLFCQSSSADLGSFLQPNSMNFSTFANLFETDVYAFDYSGYGFSSGTQSEKNMYADVRAVYEHILKTRPDKKIVVIGYSIGTTAAVDLAASNPDRLVGVVLIAPLTSALRMFCNNPDKETTCIDKICHINTRVLICHGDHDQRIPMTHGMALYENLKNPVPPLIVHGANHHSIISGEYIEVFTRIASFMRNETLLSCRANQIESSSSKKFKHE | not soluble
5 | MGSDKIHHHHHHMNRESMRPQFAPARSPSDVAMISRHIEAGVHRLPRAPHHRVMVHASAATRSYCNQVGRYFVRRAGDIDLVPAGEEGGFEAETAFDTVEIVLPPALMERVAAELGGRALVSRLDTRHLLRDQRIEHLARALQNDLDAGAPSGSLFADSIGAALAVRLLGVDDDIDIERTNRLSDTQLKRVLEHIEAALHEPLSIDRLARVAGASSSHLRTWFKVATGVTLHRYVLRRRVERARLLLERGDLSTSEVAELTGFAHQSHLAHWMRREIGQTPRDVRRARPPK | not soluble
6 | GAMGKVGVGKKAEAVATVVAAVDQARVREPREPGLPEDSYAQQTTLEYGYKEH | soluble
7 | MTHQKRLSVPKSWKVGRKGNKWISTTRPGPHSQARSLPLGLIIRDVLKLVDNNREGKRILSEGKVLVDGISRKDLRFPVGLFDVITLPLVNEAYRMLQDEKGRLVLYKLNETNVNKLCRINNKTTVKGGKIQLNLNDGTNILGSNDYGTKDSLILSIPDKHVVKHLKFEVGNLAMVIGGQHSGETGKIMEIREVKSSRHNTVMISGETDFETIEDYVIVIGEDKPEIRLGGEISELEHHHHHH | soluble
8 | MTQTYNADAIEVLTGLEPVRRRPGMYTDTTRPNHLGQEVIDNSVDEALAGHAKRVDVILHADQSLEVIDDGRGMPVDIHPEEGVPAVELILCISVVNALSKRVEVNVRRDGQVYNIAFENGEKVQDLQVVGTCGKRNTGTSVHFWPDETFFDSPRFSVSRLTHVLKAKAVLCPGVEITFKDEINNTEQRWCYQD | soluble
9 | SAESENVSNNISLYSEETVILDVKGKNKTDVIDEMIGILDKSGVLLDKKKFKEEILKREEISSTGFGMGIAIPHAKTDAVKVPRVAVGVSKEGFDFESEDGSLAHIIFMIAATDNGDNLHLKTLSQLSSKLMNEEFLNELLNSKTSREIVSKLNNEEIKSV | not soluble
10 | MGSDKIHHHHHHMKDKDINNDFNHIFPKDIRDDFLFSLDSYRLFLEGLSINPSLFYQKWSDVHLQSIIDKYWKPTQKSDWKWSLALPIFSLLENYINTFNKPIIIGFSGLPGSGKSTLGLWIDSVARELSLDIKVISLDDFYLPGHEMDVAMTGNPWNVPRGFPGSHSLDLLNQSLDVFLKTGVLNSPTFDKSLRDGKGDRSGWCDSQPRVLILEGWFVGCEAVSDLSKIDSMAADEFNLSLSQSEKDYRILIQESLFEYSHIWKKFEKIWHLKSSQFNNTILWKSQQEGEMIKLKGSGLKGNNLSNFIRMIQTSIPQQSLSFINSDTTVGINQDRRINFLKTSKYYF | not soluble
11 | MMVIGRLGAGKSFATKLRLVRRAMFDEDTVVIMLDPMRGFAGVNEALDGERITVGGRRGLNPLEIKPTPDHVLQEVDDIDPWGEQINWVMTFFATFFEHVADHPLGERNQTLRRAVQEAYEKRGITRDPETHTRDSPTIHDVITVLEEMVEDPEEYGYVTDGEQEAVQSDAQSLLKDLRPSFREGGELENLARPSEFDLDSKVIYLDLHQEEGTRGRAETSLMMQVLFNSVYERVKQTDKRVVFCIDEAHYLMNDAVSLDFLETAVRHSRHFDLSLEFITQTGGEFALTPEARTIANLCSLTVLHRVNEEKEKIAKWF | not soluble
12 | MGSDKIHHHHHHMLMESVVSVFDPDLTHLPAVAHRLQFSDPESEVPLHVHRKGQLILALHGAVTCTAGNEIWIVPPNCGVWIPGGVPHSARATANAQLNYLFVEPEAANLPGSSCTLAISPLIREMVERLAEERADYLADSHAARIARVLLDELADMPRERFNLPISSHPKIRAIADALTAEPSDRRTLSDWAKQVAMSERSLARLLIRETGLTFGRWRQQLHLVVALRELASGEAVQNVAAGLGYESVNAFITMFKKALGSTPAQYFAQRHAPTKAGSGEQNRV | not soluble
13 | MKKTYYLFNPGELSRKDNTIRFVPIQEGENGQEQAGQARYIPVEGISDFYVFGSLRANSSLYNFLGSNDIAVHFFDYYENYTGSFMPRDFLLSGKMLLAQASAYKNKKKRLFLARKFIEGAASNMQKNLAYYNNRGKDMQPMMELIDKYSLRLKETTTIEALMGIEGNIRQAYYDAFNLIIDPFEMGVRSKQPPQNEVNALISFGNMMCYTLCLKAIHQSQLNPTISFLHTPGERRYSLCLDISEVFKPILVDRTIFKVMNKRIIQAKHFDKQLNKCILNPSGKKLFVQAFEERLSETIRHRKLNRSVSFRHLVKLECYKIAKDILGIEEYQPFKMYW | not soluble
14 | MNNRDQLFKAPPFENHSPLTWYQAASQLPNFIRDDAQAAAIEHLDRLWTELMMFKRKRNRFLGRSLRSPQVPKGLYFYGGVGRGKSFLMDAFFGCLPYRRKRRVHFHAFMAEIHRRLKALKSESNPLKSVAAEITKETRVLCFDEFHVSDIADAMILGRLLENLLNEGVVLVATSNYAPSELYPQGQNRSGFLPTIALIESSLTVLNVDGGEDYRLRTLRPAEIFFTPANEENEAKLAKLFKEMTGITDLNPGISTIHGREIPHKAESGRTIWFDFRALCFSPRSQSDYLYLAEHYEMVFISGLEQLSPQEKAEARRLTWLIDVLYDFRVKLCATGAVDVNHIYTEGDFAEEFTRTASRMVEMQSEVYLEQPHLTLSPKASGGLEHHHHHH | soluble
15 | GPGSMRRTFKKLGLSALRACRGAGAAGTAASAHTSGFARVPSMSAPTALTVPRRSASDAALADATRRELEEEMGRSDKPEQPTPPAGWQVVRKPGTCTFDLTKSFEGEDLVVRYSTNQDSDKANSHNIFVYITQKNGQTMQADLSIEEGELVLNNIRFYDEAALAKDTGAEAEAKRNELYTGPLVHELDYDLLNCVMTYLEKRGVDEKLGEFVVLYSFWAEQQDYEAWLTTMNKFAS | not soluble
